Among the data in PMC10786891, “Massively parallel profiling of RNA-targeting CRISPR-Cas13d” are Kd values, retold here.

The labels stand for the following.
T1: EsCas13d, nuclease-dead (Eubacterium siraeum, UniProt B0MS50, R295A;H300A;R849A;H854A)
T1 sequence: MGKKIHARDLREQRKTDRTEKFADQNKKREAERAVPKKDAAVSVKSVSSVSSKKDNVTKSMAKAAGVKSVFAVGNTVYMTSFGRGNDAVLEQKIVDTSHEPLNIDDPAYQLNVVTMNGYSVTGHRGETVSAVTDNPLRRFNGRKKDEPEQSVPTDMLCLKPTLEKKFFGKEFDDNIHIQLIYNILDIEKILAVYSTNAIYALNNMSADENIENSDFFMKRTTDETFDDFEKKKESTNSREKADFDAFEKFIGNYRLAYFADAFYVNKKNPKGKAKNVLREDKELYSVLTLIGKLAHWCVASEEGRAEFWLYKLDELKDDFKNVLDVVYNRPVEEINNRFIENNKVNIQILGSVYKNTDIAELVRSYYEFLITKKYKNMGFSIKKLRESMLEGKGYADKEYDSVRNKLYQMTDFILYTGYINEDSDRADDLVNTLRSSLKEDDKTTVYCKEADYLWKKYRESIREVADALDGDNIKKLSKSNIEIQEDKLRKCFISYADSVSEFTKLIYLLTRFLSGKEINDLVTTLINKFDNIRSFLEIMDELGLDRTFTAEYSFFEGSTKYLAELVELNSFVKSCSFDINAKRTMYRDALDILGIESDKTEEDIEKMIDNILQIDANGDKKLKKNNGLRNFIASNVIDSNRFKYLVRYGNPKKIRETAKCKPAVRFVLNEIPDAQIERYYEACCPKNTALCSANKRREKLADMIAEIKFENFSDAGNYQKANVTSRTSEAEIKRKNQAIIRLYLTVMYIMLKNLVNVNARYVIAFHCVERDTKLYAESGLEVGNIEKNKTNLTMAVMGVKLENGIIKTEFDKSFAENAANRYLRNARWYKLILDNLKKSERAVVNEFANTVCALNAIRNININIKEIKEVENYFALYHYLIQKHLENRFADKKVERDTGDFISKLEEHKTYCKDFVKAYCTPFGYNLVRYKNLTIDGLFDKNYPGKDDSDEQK

B1: target 1 MT 5'PFS GGC 3'PFS UGU (mixed)
RNA 1: CACCCGUGCAAAAAUGCAGGGGUCUAAAACUGAGCGGAUAACCUCUCUAUGG
RNA 2: GGGAAUGGAUCCACAUCUACGAAUUCGGCCCAUAGAGAGGUUAUCCGCUCAUGUAGAUCGGAAGAGCACACGU
B2: target 1 MT 5'PFS AGG 3'PFS UGC (mixed)
RNA 1: CACCCGUGCAAAAAUGCAGGGGUCUAAAACUGAGCGGAUAACCUCUCUAUGG
RNA 2: GGGAAUGGAUCCACAUCUACGAAUUCAGGCCAUAGAGAGGUUAUCCGCUCAUGCAGAUCGGAAGAGCACACGU
B3: target 1 MT 5'PFS CUC 3'PFS UAU (mixed)
RNA 1: CACCCGUGCAAAAAUGCAGGGGUCUAAAACUGAGCGGAUAACCUCUCUAUGG
RNA 2: GGGAAUGGAUCCACAUCUACGAAUUCCUCCCAUAGAGAGGUUAUCCGCUCAUAUAGAUCGGAAGAGCACACGU
B4: target 1 MT 5'PFS UAA 3'PFS UAA (mixed)
RNA 1: CACCCGUGCAAAAAUGCAGGGGUCUAAAACUGAGCGGAUAACCUCUCUAUGG
RNA 2: GGGAAUGGAUCCACAUCUACGAAUUCUAACCAUAGAGAGGUUAUCCGCUCAUAAAGAUCGGAAGAGCACACGU
B5: target 1 MT 5'PFS UCC 3'PFS ACU (mixed)
RNA 1: CACCCGUGCAAAAAUGCAGGGGUCUAAAACUGAGCGGAUAACCUCUCUAUGG
RNA 2: GGGAAUGGAUCCACAUCUACGAAUUCUCCCCAUAGAGAGGUUAUCCGCUCAACUAGAUCGGAAGAGCACACGU
B6: target 1 MT 5'PFS AAA 3'PFS UGU (mixed)
RNA 1: CACCCGUGCAAAAAUGCAGGGGUCUAAAACUGAGCGGAUAACCUCUCUAUGG
RNA 2: GGGAAUGGAUCCACAUCUACGAAUUCAAACCAUAGAGAGGUUAUCCGCUCAUGUAGAUCGGAAGAGCACACGU
B7: target 1 MT 5'PFS GGC 3'PFS UGG (mixed)
RNA 1: CACCCGUGCAAAAAUGCAGGGGUCUAAAACUGAGCGGAUAACCUCUCUAUGG
RNA 2: GGGAAUGGAUCCACAUCUACGAAUUCGGCCCAUAGAGAGGUUAUCCGCUCAUGGAGAUCGGAAGAGCACACGU
B8: target 1 insC 3' of 20,insU 3' of 2 (mixed)
RNA 1: CACCCGUGCAAAAAUGCAGGGGUCUAAAACUGAGCGGAUAACCUCUCUAUGG
RNA 2: GGGAAUGGAUCCACAUCUACGAAUUCGUACCACUAGAGAGGUUAUCCGCUCUACCGAGAUCGGAAGAGCACACGU
B9: target 1 MT 5'PFS UAA 3'PFS UAC (mixed)
RNA 1: CACCCGUGCAAAAAUGCAGGGGUCUAAAACUGAGCGGAUAACCUCUCUAUGG
RNA 2: GGGAAUGGAUCCACAUCUACGAAUUCUAACCAUAGAGAGGUUAUCCGCUCAUACAGAUCGGAAGAGCACACGU
B10: target 1 MT 5'PFS CUU 3'PFS CCC (mixed)
RNA 1: CACCCGUGCAAAAAUGCAGGGGUCUAAAACUGAGCGGAUAACCUCUCUAUGG
RNA 2: GGGAAUGGAUCCACAUCUACGAAUUCCUUCCAUAGAGAGGUUAUCCGCUCACCCAGAUCGGAAGAGCACACGU
B11: target 1 MT 5'PFS CCU 3'PFS UCC (mixed)
RNA 1: CACCCGUGCAAAAAUGCAGGGGUCUAAAACUGAGCGGAUAACCUCUCUAUGG
RNA 2: GGGAAUGGAUCCACAUCUACGAAUUCCCUCCAUAGAGAGGUUAUCCGCUCAUCCAGAUCGGAAGAGCACACGU
B12: target 1 MT 5'PFS GAC 3'PFS CGU (mixed)
RNA 1: CACCCGUGCAAAAAUGCAGGGGUCUAAAACUGAGCGGAUAACCUCUCUAUGG
RNA 2: GGGAAUGGAUCCACAUCUACGAAUUCGACCCAUAGAGAGGUUAUCCGCUCACGUAGAUCGGAAGAGCACACGU
B13: target 1 insA 3' of 11,insG 3' of 2 (mixed)
RNA 1: CACCCGUGCAAAAAUGCAGGGGUCUAAAACUGAGCGGAUAACCUCUCUAUGG
RNA 2: GGGAAUGGAUCCACAUCUACGAAUUCGUACCAUAGAGAGGUAUAUCCGCUCGACCGAGAUCGGAAGAGCACACGU
B14: target 1 MT 5'PFS AAA 3'PFS UGA (mixed)
RNA 1: CACCCGUGCAAAAAUGCAGGGGUCUAAAACUGAGCGGAUAACCUCUCUAUGG
RNA 2: GGGAAUGGAUCCACAUCUACGAAUUCAAACCAUAGAGAGGUUAUCCGCUCAUGAAGAUCGGAAGAGCACACGU
B15: target 1 MT 5'PFS UUG 3'PFS ACC (mixed)
RNA 1: CACCCGUGCAAAAAUGCAGGGGUCUAAAACUGAGCGGAUAACCUCUCUAUGG
RNA 2: GGGAAUGGAUCCACAUCUACGAAUUCUUGCCAUAGAGAGGUUAUCCGCUCAACCAGAUCGGAAGAGCACACGU
B16: target 1 MT 5'PFS UUG 3'PFS CCU (mixed)
RNA 1: CACCCGUGCAAAAAUGCAGGGGUCUAAAACUGAGCGGAUAACCUCUCUAUGG
RNA 2: GGGAAUGGAUCCACAUCUACGAAUUCUUGCCAUAGAGAGGUUAUCCGCUCACCUAGAUCGGAAGAGCACACGU
B17: target 1 MT 5'PFS UCG 3'PFS AAU (mixed)
RNA 1: CACCCGUGCAAAAAUGCAGGGGUCUAAAACUGAGCGGAUAACCUCUCUAUGG
RNA 2: GGGAAUGGAUCCACAUCUACGAAUUCUCGCCAUAGAGAGGUUAUCCGCUCAAAUAGAUCGGAAGAGCACACGU
B18: target 1 MT 5'PFS GAC 3'PFS CGA (mixed)
RNA 1: CACCCGUGCAAAAAUGCAGGGGUCUAAAACUGAGCGGAUAACCUCUCUAUGG
RNA 2: GGGAAUGGAUCCACAUCUACGAAUUCGACCCAUAGAGAGGUUAUCCGCUCACGAAGAUCGGAAGAGCACACGU
B19: target 1 MT 5'PFS CUU 3'PFS ACC (mixed)
RNA 1: CACCCGUGCAAAAAUGCAGGGGUCUAAAACUGAGCGGAUAACCUCUCUAUGG
RNA 2: GGGAAUGGAUCCACAUCUACGAAUUCCUUCCAUAGAGAGGUUAUCCGCUCAACCAGAUCGGAAGAGCACACGU
B20: target 1 MT 5'PFS UCG 3'PFS AAA (mixed)
RNA 1: CACCCGUGCAAAAAUGCAGGGGUCUAAAACUGAGCGGAUAACCUCUCUAUGG
RNA 2: GGGAAUGGAUCCACAUCUACGAAUUCUCGCCAUAGAGAGGUUAUCCGCUCAAAAAGAUCGGAAGAGCACACGU
B21: target 1 MT 5'PFS GAC 3'PFS CGG (mixed)
RNA 1: CACCCGUGCAAAAAUGCAGGGGUCUAAAACUGAGCGGAUAACCUCUCUAUGG
RNA 2: GGGAAUGGAUCCACAUCUACGAAUUCGACCCAUAGAGAGGUUAUCCGCUCACGGAGAUCGGAAGAGCACACGU
B22: target 1 MT 5'PFS UCC 3'PFS ACG (mixed)
RNA 1: CACCCGUGCAAAAAUGCAGGGGUCUAAAACUGAGCGGAUAACCUCUCUAUGG
RNA 2: GGGAAUGGAUCCACAUCUACGAAUUCUCCCCAUAGAGAGGUUAUCCGCUCAACGAGAUCGGAAGAGCACACGU
B23: target 1 MT 5'PFS GAC 3'PFS CGC (mixed)
RNA 1: CACCCGUGCAAAAAUGCAGGGGUCUAAAACUGAGCGGAUAACCUCUCUAUGG
RNA 2: GGGAAUGGAUCCACAUCUACGAAUUCGACCCAUAGAGAGGUUAUCCGCUCACGCAGAUCGGAAGAGCACACGU
B24: target 1 MT 5'PFS UAA 3'PFS UAU (mixed)
RNA 1: CACCCGUGCAAAAAUGCAGGGGUCUAAAACUGAGCGGAUAACCUCUCUAUGG
RNA 2: GGGAAUGGAUCCACAUCUACGAAUUCUAACCAUAGAGAGGUUAUCCGCUCAUAUAGAUCGGAAGAGCACACGU
B25: target 1 MT 5'PFS CCU 3'PFS UCG (mixed)
RNA 1: CACCCGUGCAAAAAUGCAGGGGUCUAAAACUGAGCGGAUAACCUCUCUAUGG
RNA 2: GGGAAUGGAUCCACAUCUACGAAUUCCCUCCAUAGAGAGGUUAUCCGCUCAUCGAGAUCGGAAGAGCACACGU
B26: target 1 MT 5'PFS GGG 3'PFS AAA (mixed)
RNA 1: CACCCGUGCAAAAAUGCAGGGGUCUAAAACUGAGCGGAUAACCUCUCUAUGG
RNA 2: GGGAAUGGAUCCACAUCUACGAAUUCGGGCCAUAGAGAGGUUAUCCGCUCAAAAAGAUCGGAAGAGCACACGU
B27: target 1 MT 5'PFS GGC 3'PFS UGA (mixed)
RNA 1: CACCCGUGCAAAAAUGCAGGGGUCUAAAACUGAGCGGAUAACCUCUCUAUGG
RNA 2: GGGAAUGGAUCCACAUCUACGAAUUCGGCCCAUAGAGAGGUUAUCCGCUCAUGAAGAUCGGAAGAGCACACGU

This series deals with T1, EsCas13d, nuclease-dead. The series can be described thus: crRNA (strand 1, pre-loaded); Mg2+; 40 mM Tris-HCl pH 7.5, 150 mM NaCl, 6 mM MgCl2, 1 mM DTT, 0.1% Tween-20, 0.2 mg/ml BSA; 25 C; 10 min per concentration, then washed. The conditions noted are these: tags: His6-TwinStrep-SUMO cleaved; N-terminal SNAP kept (SNAP-Surface 488); label: 3' end held by stalled T7 RNA polymerase.
As to B1, binding was characterised by a dissociation constant (Kd) of 16.1 ± 2.25 nM. Then B2, with about 110 nM; and B3, with about 60 nM; and B4, with 46.5 ± 12 nM. With B5, the Kd worked out at 14 ± 5 nM.

Regarding B6, binding was put at a Kd of 40.5 ± 14.5 nM. In the case of B7, the Kd was about 60 nM.

The molecule B8 had a Kd of 14.7 ± 1 nM. With B9, the Kd amounted to 28 ± 7.5 nM. This Kd is about 1.9-fold higher than that of the molecule before. B10 returned a Kd of 80 ± 40 nM. This Kd lies about 2.9-fold higher than the previous one.

For B11, the affinity, expressed as Kd, was 14 ± 5 nM. Against the preceding molecule, the Kd is about 5.7-fold lower. Then B12, with 15.5 ± 5 nM. As to B13, binding was put at a Kd of 17.4 ± 0.8 nM.

Turning to B14, the Kd came out at 20.1 ± 3.45 nM. The figure for B15 is 53 ± 23.5 nM. The figure for B16 is 19.6 ± 4.1 nM; for B17 it is 30 ± 11 nM. Then B18, with about 20 nM. B19: the Kd is about 24 nM. Then B20, with 23 ± 8 nM; and B21, with about 35 nM; and B22, with about 71.5 nM. The figure for B23 is 48.5 ± 14 nM. Turning to B24, the Kd turned out to be 29 ± 6 nM. The figure for B25 is 14.2 ± 4.1 nM; for B26 it is 50 ± 11.5 nM; for B27 it is 11.7 ± 1.45 nM.
